Results published in the nanobody polyreactivity screen of Harvey et al. (2022).

Test: yeast display, Sf9 membrane polyspecificity reagent, FACS + sequencing; frameworks hold sequencing errors
Method in brief: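 Galactose-induced (36–48 hours) yeast carrying a synthetic nanobody display library were exposed to 10% biotinylated, detergent-solubilized Sf9 membrane reagent at 4 °C for 1 hour. FACS followed streptavidin microbead enrichment, using low and high (top ~1%) gates for expression (anti-HA) and reagent binding (streptavidin). Colony PCR, MiSeq 2 × 250 sequencing and CDR-length filtering followed. Labels for polyreactivity reflect the gate of origin.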

Row | Sequence | polyreactivity (PSR sort gate)
1 | QVQLVESRGGLVQAGGSLRLSFGASGRTFRWYAMVWYRQAPGKERELVAAITYSVGSTYYADSVKGRFTISRDNAKNTVYLQMNSLKPEDSAVYSCAADSYPYRYRGKYSRLDYWGQGTQVTVSS | low polyreactivity
2 | QVQLVESRGGLVQAGGSLRLSSAASGLTLYGYTMGWYRQAPGKERELVATMTSGRDSTYYADSVKGRFTISGDNAKNTFYLEMHCLKPEDTAVYYCGAPYAGWRDGGDYWGQGTQVTVSS | low polyreactivity
3 | QVQLVESRGGLVQAGGTLRLSCAPSGLTSYGNTRGWDIPAPGKERELVAAISKRGTSTYYADSVKGRFTISRDNAMNTVYLQMNSLKPEDTAVYYCAAAYRGREVEYISWGQGTQVTVSS | high polyreactivity
4 | QVQLVESRGGVVQAGGSLRLSSDDSGFTFYYYAMGWYRQAPGKERQLVAPITKSGGSTYYADSVKWRFTISRDNSKNSLYVKFNRLKPEDTAVYYCNKVTYSSDQYFGGDGYFWGQGTQVTVTS | high polyreactivity
5 | QVQLVESRGRLDQAGGSLRLSCAAYARIFAVYAMGWYRQAPGKESEFVATITYNAGSTYYADSVKGRFTISRDNAKNTVNLQMNSLKPEDTAVYYCAVELDSEPAYEPWTEYDYWGQGTQVTVSS | low polyreactivity
6 | QVQLVESRGRLVQAGGSLRLSCAASGITFYVYTMGWYRQAPGKERELVAAINGSGGSTNYADSVKGRFTISRDNAKNSVYLHMNSLKTEDTAVYYCAADWSLRLYDYWGQGTQVTVSS | low polyreactivity
7 | QVQLVESRGVLVQAGGSLRLSCAASGFTFDYNAMGWYRQAPGKERELVAVISSSGSRTYYADSVKGRFTISRDNAKNTVYLQMNSLKPVDTAVYYCARDNWQWYPSTWYDYWGQGTQVTVSS | high polyreactivity
8 | QVQLVESRGVLVQAGGSLRLSCAASGLTFGGNAKGWYRQAPGKERELVAAISWSDDTTDYADSVKGRFTISRDNAKNTVYLQMNSLKPEDTAVYYCAARLPFEHVDYWGQGTQVTVSS | low polyreactivity
9 | QVQLVESRGVLVQAGGSLRLSCAASGSIFEWYAMGWYRQAPGKERELVAVISDGSTNYADSVKGRFTISRDNAKKTVYLQMNSLKPEDPAVSYCAADPFDGYSSSEYDYWGQGTQVTVSS | low polyreactivity
10 | QVQLVESRRGLVQAGGSLRLSCASSGFTVCWYAMGLYRPAPGTERELVAAISSGGSTNYADSVKGRFTISRDNAKNTVYFQMNSLKPEDTAVYYCARRLWYSDRYSARWQYDYWGQGTQVTVSS | high polyreactivity
11 | QVQLVESVGCLVQPGGSLRLSCATSGSIFLLYARGWYRQPPGKERELVAAITSSGGSTNYADSVKGRITISRDTAKNTVYLQMNSLKPEDTEVYYSATAPYAYTILGSRFDYWGKGTQVTVSS | low polyreactivity
12 | QVQLVESVGGLDQAGGSLRLSCAASGRIFRYYAMGWDRQAPGKERELVAAITSDGRTYYADSVKGRFTISRDNAKNTVYLQMNSLKPEDTAVYYCAADHHSYRYGGYYYWGQGTQVTVSS | low polyreactivity
13 | QVQLVESVGGLFHEGGSLRLSSAASGFIFWANAMGCYRQAPGKERELVAAIRNSGGRTYYADSVKGRFTISRDKAKNTVYLQMNSLKPEDTAVYFCATDTGYPYSYDLFDSYYWGQGTQLTVSS | low polyreactivity
14 | QVQLVESVGGLFQAGGSLRLSCDASGFTFTAYAMGWYIQAPGKERELVAAINWSGSRTYYADSVKGRFTISRDNAKNTVYLQMNSLKPEDTAVYYCNTATSKSSYRHYDYWGQGTQVTVSS | high polyreactivity
15 | QVQLVESVGGLVKAGGRLRLSCAASGRIFPPNALACSRQAPGKERELVADNNFSGDSTYYADSVKGRFTISRDNAKNTVYLQMNSLKPEDTSVYYCAAVISLVSYYYWGQATQVTVSS | low polyreactivity
16 | QVQLVESVGGLVKAGVSLRLSCAASGYIFPYYAMGWYRQAPGKERELVAAISRSGGGTYYADSVKGRFTISRYNAKNTVYFQMKSLKPVVTAVYYFNRRSGQVDVYDYWGQGTKVTVSS | low polyreactivity
